# B1: Humanized variant H1L1 of anti-idiotypic antibody 4.24.72 (IgG) (antibody, V domains shown)
# VH: QVQLVQSGSELKKPGASVKVSCKASGYTVTDYSMNWVRQAPGQGLEWMGWINTETGEPRYTDDFKGRFVFSLDTSVSTAYLQISSLKAEDTAVYYCAREGDYDVFDYWGQGTLVTVSS
# VL: DIVMTQSPDSLAVSLGERATINCRASKSVSTSSYSYMHWYQQKPGQPPKLLIKYVSYLESGVPDRFSGSGSGTDFTLTISSLQAEDVAVYYCQHSREFPYTFGQGTKLEIK
# notes: Produced and purified as IgG; also called Mask humanization variant H1L1
# B2: Anti-CD3 antibody clone P035.093 in monovalent human IgG1 format (antibody, V domains shown)
# VH: EVQLLESGGGLVQPGGSLRLSCAASGFTFSSYAMNWVRQAPGKGLEWVSRIRSKYNNYATYYADSVKGRFTISRDDSKNTLYLQMNSLRAEDTAVYYCVRASNFPASYVSYFAYWGQGTLVTVSS
# VL: QAVVTQEPSLTVSPGGTVTLTCGSSTGAVTTSNYANWVQEKPGQAFRGLIGGTNKRAPGTPARFSGSLLGGKAALTLSGAQPEDEAEYYCALWYSNLWVFGGGTKLTVL
# notes: Monovalent human IgG1 with crossed VH and VL domains; knob-into-hole; P329G L234A L235A; also called P035.093 (monovalent IgG)
# B3: CD3orig in monovalent human IgG1 format (antibody, V domains shown)
# VH: not shown
# VL: QAVVTQEPSLTVSPGGTVTLTCGSSTGAVTTSNYANWVQEKPGQAFRGLIGGTNKRAPGTPARFSGSLLGGKAALTLSGAQPEDEAEYYCALWYSNLWVFGGGTKLTVL
# notes: Monovalent human IgG1 with crossed VH and VL domains; knob-into-hole; P329G L234A L235A; also called CD3orig (monovalent IgG)
# B4: Anti-CD3 antibody clone P033.078 in monovalent human IgG1 format (antibody, V domains shown)
# VH: EVQLLESGGGLVQPGGSLRLSCAASGFTFESYAMNWVRQAPGKGLEWVSRIRSKYNEYATYYADSVKGRFTISRDDSKNTLYLQMNSLRAEDTAVYYCVRASNFPSSFVSYFGYWGQGTLVTVSS
# VL: QAVVTQEPSLTVSPGGTVTLTCGSSTGAVTTSNYANWVQEKPGQAFRGLIGGTNKRAPGTPARFSGSLLGGKAALTLSGAQPEDEAEYYCALWYSNLWVFGGGTKLTVL
# notes: knob-into-hole; P329G L234A L235A; also called P033.078 (monovalent IgG)
# B5: Anti-idiotypic IgG 4.24.72 (parental chimeric antibody) (antibody, V domains shown)
# VH: QIQLVQSGPELKKPGETVKISCKASGYTVTDYSMNWVKQAPGKCLKWMGWINTETGEPRYTDDFKGRFAFSLETSASTAYLQINNLKNEDSATYFCAREGDYDVFDYWGHGTTLKVSS
# VL: DIVLTQSPASLAVSLGQRATISCRASKSVSTSSYSYMHWYQQKPGQPPKLLIKYVSYLESGVPARFSGSGSGTDFTLNIHPVEEEDAATYYCQHSREFPYTFGCGTKLEIK
# notes: Tested as chimeric IgG; also called ID_4.24.72
# Assays:
# FOLR1 CD3 TCB P035.093 [1] = molecular target: T1, FOLR1 CD3 TCB P035.093; assay: SPR, Biacore T200, 37 °C; FOLR1 CD3 TCB P035.093 captured on FOLR1-Fc (C1 chip), anti-idiotypic antibody 1.2-100 nM as analyte; 1:1 Langmuir fit; n=5; Stdev 0.6 nM
# T1 construct: Classical 2+1 TCB, knob-into-hole, PGLALA; the common light chain pairs with each of the Fabs; also called FOLR1 TCB CD3: P035.093
# Description: (§1) Briefly, FOLR1-Fc was immobilized on a series s sensor chip C1 using standard amine coupling chemistry according to the manufacturer's instructions. […] The first flow cell was kept as mock surface. […] Dissociation was monitored for 300 s, the flow rate was set to 30 μl/min. The surface was regenerated by injecting 10 mM Glycine pH 2.0 for 60 s, followed by injecting 5 mM NaOH for 60 s at a flow rate of 5 μl/min. Bulk refractive index differences were corrected by subtracting the response obtained from flow cell one (mock surface) as well as by substracting buffer injections (double referencing). The derived curves were fitted to a 1:1 Langmuir binding model using the BIAevaluation software (GE Healthcare). […] All experiments were performed at 37° C. using HBS-N (10 mM HEPES, 150 mM NaCl pH 7.4, 0.05% Surfactant P-20).
# [2] = molecular target: T2, biotinylated anti-human CD3 IgG (anti-CD3 P035.093) (biotinylated (site not stated)); assay: SPR; biotinylated anti-CD3 P035.093 IgG on CAP chip, anti-idiotypic IgG at 1 µg/ml; response normalised to anti-human IgG surface and to the unstressed sample; after 14 d at 37 °C pH 7.4
# T2 construct: IgG format of this reagent is not described further; immobilised on a CAP chip; also called CD3 IgG (P035.093)
# Description: Therefore, they were analyzed for thermal stability and remaining target binding after 14 d stress conditions (40° C. at pH6.0 or 37° C. at pH7.4).
# (§2) Flow cell 1 was kept as mock surface. […] Dissociation was monitored for 30 s, the flow rate was set to 5 μl/min. The CAP chip was regenerated by injecting a mix of NaOH and Guadinium-hydrochloride for 120 s, provided in the biotin capture kit. Bulk refractive index differences were corrected by subtracting the response obtained from flow cell 1 (mock surface).
# [3] = molecular target: T2, biotinylated anti-human CD3 IgG …; assay: SPR; biotinylated anti-CD3 P035.093 IgG on CAP chip, anti-idiotypic IgG at 1 µg/ml; response normalised to anti-human IgG surface and to the unstressed sample; after 14 d at 40 °C pH 6.0
# Description: as §2
# FOLR1 CD3 TCB P035.093 [4] = molecular target: T1, FOLR1 CD3 TCB P035.093; assay: SPR, Biacore T200, 37 °C; FOLR1 CD3 TCB P035.093 captured on FOLR1-Fc (C1 chip), anti-idiotypic antibody as analyte; n=5; Stdev 66 s
# Description: as §1
# [5] = molecular target: T3, Human CD3ε stalk-Fc(knob)-Avi/CD3δ stalk-Fc(hole) (human); assay: SPR, biotinylated human CD3ε/δ on SA chip, monovalent IgG; response normalised to anti-huIgG capture and referenced to the unstressed sample; after 2 weeks at pH 6.0/40 °C
# T3 construct: Heterodimeric Fc fusion; also called human CD3ε/δ; Human CD3 epsilon stalk-Fc(knob)-Avi
# Description: (§3) All SPR experiments were performed on a Biacore T200 instrument (GE Healthcare) at 25° C. with HBS-P+ (10 mM HEPES, 150 mM NaCl pH 7.4, 0.05% Surfactant P20) as running and dilution buffer. Biotinylated human CD3ε/δ (see Example 3, SEQ ID NOs 41 and 42) as well as biotinylated anti-huIgG (Capture Select, Thermo Scientific, #7103262100) were immobilized on a Series S Sensor Chip SA (GE Healthcare, #29104992), resulting in surface densities of at least 1000 resonance units (RU). Anti-CD3 antibodies with a concentration of 2 μg/ml were injected for 30 s at a flow rate of 5 μl/min, and dissociation was monitored for 120 s. The surface was regenerated by injecting 10 mM glycine pH 1.5 for 60 s. Bulk refractive index differences were corrected by subtracting blank injections and by subtracting the response obtained from a blank control flow cell. For evaluation, the binding response 5 seconds after injection end was taken. To normalize the binding signal, the CD3 binding was divided by the anti-huIgG response (the signal (RU) obtained upon capture of the CD3 antibody on the immobilized anti-huIgG antibody). The relative binding activity was calculated by referencing each temperature stressed sample to the corresponding, non-stressed sample.
# [6] = molecular target: T4, Cynomolgus CD3ε stalk-Fc(knob)-Avi/CD3δ stalk-Fc(hole) (cynomolgus); assay: SPR, Biacore T200, 25 °C; monovalent IgG captured by anti-PG antibody on C1 chip, CD3ε/δ-Fc as analyte; triplicates
# T4 construct: Heterodimeric Fc fusion; also called cynomolgus CD3ε/δ
# Description: (§4) Kinetic constants were derived using the Biacore T200 Evaluation Software (GE Healthcare Life Sciences), to fit rate equations for 1:1 Langmuir binding by numerical integration. The half-life (t_{1/2}) of the interaction was calculated using the formula t_{1/2}=ln 2/koff.
# (§5) To analyze the interaction to CD3, IgG molecules were captured for 240 s at 50 nM with a flow rate of 5 μl/min. Human and cynomolgus CD3ε stalk-Fc(knob)-Avi/CD3δ-stalk-Fc(hole) were passed at a concentration of 0.061-250 nM with a flow rate of 30 μl/min through the flow cells for 300 s. The dissociation was monitored for 800 s.
# [7] = molecular target: T3, Human CD3ε stalk-Fc(knob)-Avi/CD3δ …; assay: as above
# Description: as §4, §5
# [8] = molecular target: T4, Cynomolgus CD3ε stalk-Fc(knob)-Avi/CD3δ …; assay: SPR, Biacore T200, 25 °C; monovalent IgG captured by anti-PG antibody on C1 chip, CD3ε/δ-Fc as analyte; 1:1 Langmuir fit; triplicates
# Description: as §4, §5
# [9] = molecular target: T3, Human CD3ε stalk-Fc(knob)-Avi/CD3δ …; assay: as above
# Description: as §4, §5
# [10] = molecular target: T3, Human CD3ε stalk-Fc(knob)-Avi/CD3δ …; assay: SPR, biotinylated human CD3ε/δ on SA chip, monovalent IgG; response normalised to anti-huIgG capture and referenced to the unstressed sample; after 2 weeks at pH 7.4/37 °C
# Description: as §3
# [11] = molecular target: T3, Human CD3ε stalk-Fc(knob)-Avi/CD3δ …; assay: SPR, monovalent IgG format
# [12] = molecular target: TYRP1 TCB with CD3 binder CH2527; assay: cell-based or functional assay
# [13] = molecular target: TYRP1 TCB containing optimized anti-CD3 antibody clone P035.093; assay: cell-based or functional assay
# [14] = molecular target: T5, TCB with CD3 binding Fab P035.093 (analyte of Table 9); assay: SPR, Biacore T200; anti-idiotypic IgG amine-coupled on CM5 chip, TCB as analyte; 1:1 Langmuir fit; single dilution series
# T5 construct: not shown: Target-cell arm (TYRP1 or FOLR1 16D5), constant regions and Fc
# Description: (§6) SPR experiments were performed on a Biacore T200 with HBS-EP+ as running buffer (0.01 M HEPES pH 7.4, 0.15 M NaCl, 0.005% Surfactant P20 (BR-1006-69, GE Healthcare)). Three anti-idiotypic antibodies were directly immobilized by amine coupling on a CMS chip (GE Healthcare). A three-fold dilution series of the different T cell bispecifics (TCBs) was passed 20 over the ligand at 30 μl/min for 180 sec to record the association phase. The dissociation phase was monitored for 600 s and triggered by switching from the sample solution to HBS-EP+. The chip surface was regenerated after every cycle using one injection of 10 mM glycine pH 2.1 for 60 sec, followed by two injections of 30 sec. Bulk refractive index differences were corrected for by subtracting the response obtained on the reference flow cell 1. The affinity constants were derived from the kinetic rate constants by fitting to a 1:1 Langmuir binding using the Biaeval 5 software (GE Healthcare). The measure was performed with a single dilution series.
# (§7) SPR analysis was evaluated with masks as IgGs (immobilized on CM5 chip) and TCBs with different CD3 binding Fabs as analytes.
# [15] = molecular target: T6, TCB with CD3 binding Fab CH2527 (analyte of Table 9); assay: as above
# T6 construct: also called CD3 CH2527; not shown: Target-cell arm (TYRP1 or FOLR1 16D5), constant regions and Fc
# Description: as §6, §7
# FOLR1 CD3 TCB P035.093 [16] = molecular target: T1, FOLR1 CD3 TCB P035.093; assay: SPR, Biacore T200, 37 °C; FOLR1 CD3 TCB P035.093 captured on FOLR1-Fc (C1 chip), anti-idiotypic antibody 1.2-100 nM as analyte; 1:1 Langmuir fit; n=5; Stdev 0.4 nM
# Description: as §1
# FOLR1 CD3 TCB P035.093 [17] = molecular target: T1, FOLR1 CD3 TCB P035.093; assay: SPR, Biacore T200, 37 °C; FOLR1 CD3 TCB P035.093 captured on FOLR1-Fc (C1 chip), anti-idiotypic antibody as analyte; n=5; Stdev 140 s
# Description: as §1
# T4 sequence (chain, as listed by the source mutant limits assumed, chain 1 of 2): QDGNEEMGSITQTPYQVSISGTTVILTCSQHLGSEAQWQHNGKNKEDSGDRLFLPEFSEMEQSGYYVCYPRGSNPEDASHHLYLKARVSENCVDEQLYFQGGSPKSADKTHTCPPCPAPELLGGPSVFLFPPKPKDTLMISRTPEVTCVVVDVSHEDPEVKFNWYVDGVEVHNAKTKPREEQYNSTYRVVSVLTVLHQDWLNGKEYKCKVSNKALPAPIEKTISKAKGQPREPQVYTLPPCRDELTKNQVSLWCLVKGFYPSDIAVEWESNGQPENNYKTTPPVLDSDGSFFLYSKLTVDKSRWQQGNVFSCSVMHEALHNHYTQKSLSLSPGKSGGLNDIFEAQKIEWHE
# T4 sequence (chain, as listed by the source mutant limits assumed, chain 2 of 2): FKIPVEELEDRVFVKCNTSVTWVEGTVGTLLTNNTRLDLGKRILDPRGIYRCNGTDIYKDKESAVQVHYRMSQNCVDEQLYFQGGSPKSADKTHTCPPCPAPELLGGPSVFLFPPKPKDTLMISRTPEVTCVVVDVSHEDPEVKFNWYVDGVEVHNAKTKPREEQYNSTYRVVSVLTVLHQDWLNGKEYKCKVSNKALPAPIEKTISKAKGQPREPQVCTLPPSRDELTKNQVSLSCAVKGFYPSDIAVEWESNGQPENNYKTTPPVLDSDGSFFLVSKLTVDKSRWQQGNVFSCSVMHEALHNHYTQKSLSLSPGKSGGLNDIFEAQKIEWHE
Binder,binding activity [%] [5],t1/2 [6],t1/2 [7],Kd [8],Kd [9],binding activity [%] [10],koff [9],kon [9],also measured
B1,–,–,–,–,–,–,–,–,Kd (FOLR1 CD3 TCB P035.093 [1]): 1.8 nM; Rel. active concentration [%] [2]: 93%; Rel. active concentration [%] [3]: 99%; t1/2 diss (FOLR1 CD3 TCB P035.093 [4]): 6.18 min
B2,100%,11.8 min,8.25 min,0.224 nM,0.456 nM,–,–,–,–
B3,97%,–,3.98 min,–,4.94 nM,60%,0.0029 s⁻¹,587000 M⁻¹ s⁻¹,–
B4,98%,11.1 min,8.69 min,0.403 nM,0.771 nM,95%,0.00133 s⁻¹,1.73e+06 M⁻¹ s⁻¹,fold of binding half-life over CD3orig [11]: > 2 fold; koff [8]: 0.00104 s⁻¹; kon [8]: 2.6e+06 M⁻¹ s⁻¹
B5,–,–,–,–,–,–,–,–,"IC50 (read off the curve): reduction of Jurkat NFAT luminescence by anti-ID 4.24.72 IgG, TYRP1 TCB (CH2527) at EC90 [12]: ~1 nM; IC50 (read off the curve): reduction of Jurkat NFAT luminescence by anti-ID 4.24.72 IgG, TYRP1 TCB (CD3 variant P035.093) at EC90 [13]: ~1 nM; Kd [14]: 2.1 nM; koff [14]: 0.000309 s⁻¹; kon [14]: 148000 M⁻¹ s⁻¹; Kd [15]: 4.7 nM; koff [15]: 0.000675 s⁻¹; kon [15]: 141000 M⁻¹ s⁻¹; Kd (FOLR1 CD3 TCB P035.093 [16]): 1.5 nM; t1/2 diss (FOLR1 CD3 TCB P035.093 [17]): 7.43 min"

# From patent publication US20230287145A1 (Hoffmann-La Roche, published 2023)
